Data taken from publication PMC10720262 (Cell Reports, 2023).
Residue numbers refer to the chain shown, from its start.

B1: CL-512023 (antibody, V domains shown)
VH: QVQLMESGGGVVQPGRSLRLSCEASGFTFSNSGMHWVRQAPGKGLEWVAIIWYDGSNRYYVDSVKGRFTISRDNSKNTLYLQMNSLRAEDTAVYYCARDGGNRYGYGWFDSWGQGTLVTVSS
VL: QSVLTQPPSVSGAPGQRVTISCTGSSSNIGAGYDVHWYQQLPGTAPKLLIYGNTNRPSGVPDRFSGSKSGTSASLAITGLQAEDEADYYCQSYDSSLGGSRRVFGGGTKLTVL
B2: CL-511862 (antibody, V domains shown)
VH: QVQLVESGGGVVQPGKSLRLSCAASGFSFSSSGMHWVRQAPDKGLEWVAIIWYDGSHKFYADSVKGRFTISRDNSDNTLFLQMDSLRAEDTAVYYCVRAYPTSYNGNYDKYGMDVWGQGTTVTVSS
VL: DIQMTQSPSTLSASVGDRVTIACRASQSISTWLAWYQQKPGKAPKLLIYKASTLESGVPSRFSGSGSGTEFTLTISSLQPDDFATYYCQQFTFYWTFGQGTKVEIK
B3: CL-512275 (antibody, V domains shown)
VH: QVQLVESGGGVVQPGGSFRLSCETSGFTFSNFGMHWVRQAPGKGLEWVALIWYDGSHKFYADSLTGRFTISRDNSKNTLYLQMNSLRVEDTAVYYCARAHSVTTANDKYGTDVWGQGTTVTVSP
VL: B2 VL with A22T, T31S, Q38H, K42R, T53S, V58I, Y87F, F91Y, T92N, F93S
B4: CL-512011 (antibody, V domains shown)
VH: B3 VH with G16R, F18L, E23V, N31S, S101A, T121N
VL: B2 VL with A22T, T31S, Q38H, K42N, T53N, Y87F, F91Y, T92N, F93S, I105V
B5: CL-512264 (antibody, V domains shown)
VH: B3 VH with G16R, F18L, E23V, L50I, H57N, T65K, Y80F, V88A, S101T, P124S
VL: B2 VL with A22T, T31S, Q38H, T53S, Y87F, F91Y, T92N, F93S
B6: CL-511905 (antibody, V domains shown)
VH: QVQLVESGGGVVQPGRSLRLSCAASGFTFSGSGMHWVRQAPGRGLEWVAIIWYDGSHKYYVDSVQGRFIISRDNSKNTLYLEMNSLRVEDTAVYYCVRAYPSGSSNDKYGMDVWGQGTTVTVSS
VL: not shown
B7: CL-512206 (antibody, V domains shown)
VH: QVQLVESGGGVVQPGRSLRLSCAASGFTFSHYGMHWVRQAPGKGLEWVAVIWYDGNNKFYADSVKGRFTISRDNSNNTLYLQMNSLRAEDTAVYHCVRERTGATSRGFDFWGQGTLVTVSS
VL: QSVLTQPPSVSAAPGQKVTISCSGSDSNIEKYYVSWYQQLPGSAPKLLIYDNNKRPSGIPDRFSGSKSGTSATLGITGLQTGDEAVYYCGTWDSSLSTGVFGGGTKLTVL
B8: CL-512191 (antibody, V domains shown)
VH: QVQLVESGGGVVQPGRSLRLSCAASGFTFSNYAMHWVRQAPGKGLEWVAVIWYDGSNKYYADSVKGRFTISRDDSKNTLYLQMNSLRAEDTAVYYCARDKGYRYGFNWFDPWGQGTLVTVSS
VL: QSVLTQPPSVSGAPGQRVTISCTGSSSNIGAGYDVHWYQKLPGTAPKLLIFSNSNRPSGVPDRFSGSKSGTSASLAITGLQAEDEADYYCQSYDSSLSGSRVFGGGTKLTVL
B9: CL-511776 (antibody, V domains shown)
VH: QVQLVESGGGVVQPGRSLTLSCAASGFTFSNFGMHWVRQAPGKGLEWMAVIWYDGNNEFYADSVKGRFTISRDNSKNMLYLHMNSLRAEDTAIYYCAREGDYSASGSHWLFDPWGQGTQVTVSS
VL: DIQMTQSPSTLSASVGDSITITCRASQSINIWLAWYQQKPGKAPNLLIYKASSLESGVPSRFSGSGSGTEFTLTINSLQPDDFATYYCQQYNNYVTFGGGTKVEIK

Molecular target: recombinant full-length PfCSP (Plasmodium falciparum circumsporozoite protein, strain NF54) (Plasmodium falciparum NF54, UniProt P19597)
Sequence (P19597 20-375): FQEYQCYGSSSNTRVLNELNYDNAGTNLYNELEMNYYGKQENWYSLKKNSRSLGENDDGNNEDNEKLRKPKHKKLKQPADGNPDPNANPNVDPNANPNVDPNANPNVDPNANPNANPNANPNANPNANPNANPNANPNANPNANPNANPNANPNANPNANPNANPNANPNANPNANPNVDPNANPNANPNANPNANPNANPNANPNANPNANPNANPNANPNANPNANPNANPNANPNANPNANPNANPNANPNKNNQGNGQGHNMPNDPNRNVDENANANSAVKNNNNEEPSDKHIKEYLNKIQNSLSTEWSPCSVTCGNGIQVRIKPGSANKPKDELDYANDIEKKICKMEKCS

Row | Binder | binding result
1 | B1 | binds
2 | B2 | binds
3 | B3 | binds
4 | B4 | binds
5 | B5 | binds
6 | B6 | binds
7 | B7 | binds
8 | B8 | binds
9 | B9 | binds
